According to patent publication US20250312499A1, “KISSPEPTIN RECEPTOR (KISS1R) TARGETED THERAPEUTICS AND USES THEREOF” (priority 2024, published 2025):
Numbered stars: 1 amine (or outer) side, 2 acyl side, 3 side chain; on linkers, the order of the positions; unused ones are H or OH. Square brackets hold non-standard residues; d marks the D form. Ends that are not written are not given here. * marks the point of attachment. X2 = 4‑amino‑1‑((3-fluoro-4-methylbenzyl)glycyl)piperidine‑4‑carboxylic acid, Cc1ccc(CN(CC(=O)N2CCC(N[*:1])(C(=O)[*:2])CC2)[*:3])cc1F; X6 = 3‑(2-(2-(3-(p-tolyl)propanamido)ethoxy)ethoxy)propanoyl, Cc1ccc(CCC(=O)NCCOCCOCCC(=O)*)cc1; DOTA = O=C(O)CN1CCN(CC(=O)O)CCN(CC(=O)*)CCN(CC(=O)O)CC1; HO(CH2CH2O)2CH2CH2CO = O=C(CCOCCOCCO)*; Phe(3-F) = N[C@@H](Cc1cccc(F)c1)C(=O)O; d2Nal = N[C@H](Cc1ccc2ccccc2c1)C(=O)O; d4Pal = N[C@H](Cc1ccncc1)C(=O)O; Cha = N[C@@H](CC1CCCCC1)C(=O)O; Octanoyl = CCCCCCCC(=O)*; APM = not defined here; Ahx = NCCCCCC(=O)O; azaGly = NNC(=O)O

B1: Compound 32 (peptide)
peptide: {DOTA-Ahx}-[dY][dH][dW]NTF[azaGly]L[X2]W-NH2
SMILES: Cc1ccc(CNCC(=O)N2CCC(NC(=O)[C@H](CC(C)C)NC(=O)NNC(=O)[C@H](Cc3ccccc3)NC(=O)[C@@H](NC(=O)[C@H](CC(N)=O)NC(=O)[C@@H](Cc3c[nH]c4ccccc34)NC(=O)[C@@H](Cc3c[nH]cn3)NC(=O)[C@@H](Cc3ccc(O)cc3)NC(=O)CCCCCNC(=O)CN3CCN(CC(=O)O)CCN(CC(=O)O)CCN(CC(=O)O)CC3)[C@@H](C)O)(C(=O)N[C@@H](Cc3c[nH]c4ccccc34)C(N)=O)CC2)cc1F
B2: Compound 27 (peptide)
peptide: {DOTA-Ahx}-[dY]KNT[Phe(3-F)][azaGly]L[X2]W-NH2
SMILES: Cc1ccc(CNCC(=O)N2CCC(NC(=O)[C@H](CC(C)C)NC(=O)NNC(=O)[C@H](Cc3cccc(F)c3)NC(=O)[C@@H](NC(=O)[C@H](CC(N)=O)NC(=O)[C@H](CCCCN)NC(=O)[C@@H](Cc3ccc(O)cc3)NC(=O)CCCCCNC(=O)CN3CCN(CC(=O)O)CCN(CC(=O)O)CCN(CC(=O)O)CC3)[C@@H](C)O)(C(=O)N[C@@H](Cc3c[nH]c4ccccc34)C(N)=O)CC2)cc1F
B3: Compound 365 (peptide)
peptide: {DOTA}-G[dY][d2Nal]NTF[azaGly]L[X2]W-NH2
SMILES: Cc1ccc(CNCC(=O)N2CCC(NC(=O)[C@H](CC(C)C)NC(=O)NNC(=O)[C@H](Cc3ccccc3)NC(=O)[C@@H](NC(=O)[C@H](CC(N)=O)NC(=O)[C@@H](Cc3ccc4ccccc4c3)NC(=O)[C@@H](Cc3ccc(O)cc3)NC(=O)CNC(=O)CN3CCN(CC(=O)O)CCN(CC(=O)O)CCN(CC(=O)O)CC3)[C@@H](C)O)(C(=O)N[C@@H](Cc3c[nH]c4ccccc34)C(N)=O)CC2)cc1F
B4: Compound 26 (peptide)
peptide: {DOTA-Ahx}-NTF[azaGly]L[X2]W-NH2
SMILES: Cc1ccc(CNCC(=O)N2CCC(NC(=O)[C@H](CC(C)C)NC(=O)NNC(=O)[C@H](Cc3ccccc3)NC(=O)[C@@H](NC(=O)[C@H](CC(N)=O)NC(=O)CCCCCNC(=O)CN3CCN(CC(=O)O)CCN(CC(=O)O)CCN(CC(=O)O)CC3)[C@@H](C)O)(C(=O)N[C@@H](Cc3c[nH]c4ccccc34)C(N)=O)CC2)cc1F
B5: Compound 380 (peptide)
peptide: Ac-[dY]K(DOTA)NTF[azaGly]L[X2]W-NH2
SMILES: CC(=O)N[C@H](Cc1ccc(O)cc1)C(=O)N[C@@H](CCCCNC(=O)CN1CCN(CC(=O)O)CCN(CC(=O)O)CCN(CC(=O)O)CC1)C(=O)N[C@@H](CC(N)=O)C(=O)N[C@H](C(=O)N[C@@H](Cc1ccccc1)C(=O)NNC(=O)N[C@@H](CC(C)C)C(=O)NC1(C(=O)N[C@@H](Cc2c[nH]c3ccccc23)C(N)=O)CCN(C(=O)CNCc2ccc(C)c(F)c2)CC1)[C@@H](C)O
B6: Compound 20 (peptide)
peptide: {DOTA-Ahx}-[dY]PNTF[azaGly]L[X2]W-NH2
SMILES: Cc1ccc(CNCC(=O)N2CCC(NC(=O)[C@H](CC(C)C)NC(=O)NNC(=O)[C@H](Cc3ccccc3)NC(=O)[C@@H](NC(=O)[C@H](CC(N)=O)NC(=O)[C@@H]3CCCN3C(=O)[C@@H](Cc3ccc(O)cc3)NC(=O)CCCCCNC(=O)CN3CCN(CC(=O)O)CCN(CC(=O)O)CCN(CC(=O)O)CC3)[C@@H](C)O)(C(=O)N[C@@H](Cc3c[nH]c4ccccc34)C(N)=O)CC2)cc1F
B7: Compound 366 (peptide)
peptide: {DOTA-Ahx}-[dY][dW]NTF[azaGly]L[X2]Y-NH2
SMILES: Cc1ccc(CNCC(=O)N2CCC(NC(=O)[C@H](CC(C)C)NC(=O)NNC(=O)[C@H](Cc3ccccc3)NC(=O)[C@@H](NC(=O)[C@H](CC(N)=O)NC(=O)[C@@H](Cc3c[nH]c4ccccc34)NC(=O)[C@@H](Cc3ccc(O)cc3)NC(=O)CCCCCNC(=O)CN3CCN(CC(=O)O)CCN(CC(=O)O)CCN(CC(=O)O)CC3)[C@@H](C)O)(C(=O)N[C@@H](Cc3ccc(O)cc3)C(N)=O)CC2)cc1F
B8: Compound 379 (peptide)
peptide: {HO(CH2CH2O)2CH2CH2CO}-[dY]K(DOTA)NTF[azaGly]L[X2]W-NH2
SMILES: Cc1ccc(CNCC(=O)N2CCC(NC(=O)[C@H](CC(C)C)NC(=O)NNC(=O)[C@H](Cc3ccccc3)NC(=O)[C@@H](NC(=O)[C@H](CC(N)=O)NC(=O)[C@H](CCCCNC(=O)CN3CCN(CC(=O)O)CCN(CC(=O)O)CCN(CC(=O)O)CC3)NC(=O)[C@@H](Cc3ccc(O)cc3)NC(=O)CCOCCOCCO)[C@@H](C)O)(C(=O)N[C@@H](Cc3c[nH]c4ccccc34)C(N)=O)CC2)cc1F
B9: Compound 383 (peptide)
peptide: {DOTA-Ahx}-[dY][dW]NTF[azaGly]L[X2][dW]-NH2
SMILES: Cc1ccc(CNCC(=O)N2CCC(NC(=O)[C@H](CC(C)C)NC(=O)NNC(=O)[C@H](Cc3ccccc3)NC(=O)[C@@H](NC(=O)[C@H](CC(N)=O)NC(=O)[C@@H](Cc3c[nH]c4ccccc34)NC(=O)[C@@H](Cc3ccc(O)cc3)NC(=O)CCCCCNC(=O)CN3CCN(CC(=O)O)CCN(CC(=O)O)CCN(CC(=O)O)CC3)[C@@H](C)O)(C(=O)N[C@H](Cc3c[nH]c4ccccc34)C(N)=O)CC2)cc1F
B10: Compound 381 (peptide)
peptide: Octanoyl-[dY]K(DOTA)NTF[azaGly]L[X2]W-NH2
SMILES: CCCCCCCC(=O)N[C@H](Cc1ccc(O)cc1)C(=O)N[C@@H](CCCCNC(=O)CN1CCN(CC(=O)O)CCN(CC(=O)O)CCN(CC(=O)O)CC1)C(=O)N[C@@H](CC(N)=O)C(=O)N[C@H](C(=O)N[C@@H](Cc1ccccc1)C(=O)NNC(=O)N[C@@H](CC(C)C)C(=O)NC1(C(=O)N[C@@H](Cc2c[nH]c3ccccc23)C(N)=O)CCN(C(=O)CNCc2ccc(C)c(F)c2)CC1)[C@@H](C)O
B11: Compound 22 (peptide)
peptide: {DOTA-Ahx}-FF[azaGly]L[X2]W-NH2
modifications: not fully specified; numbers in words are those of the source; also: places azaglycine at site 3
B12: Compound 23 (peptide)
peptide: {DOTA}-[dY][d4Pal]NTF[azaGly]L[X2]W-NH2
SMILES: Cc1ccc(CNCC(=O)N2CCC(NC(=O)[C@H](CC(C)C)NC(=O)NNC(=O)[C@H](Cc3ccccc3)NC(=O)[C@@H](NC(=O)[C@H](CC(N)=O)NC(=O)[C@@H](Cc3ccncc3)NC(=O)[C@@H](Cc3ccc(O)cc3)NC(=O)CN3CCN(CC(=O)O)CCN(CC(=O)O)CCN(CC(=O)O)CC3)[C@@H](C)O)(C(=O)N[C@@H](Cc3c[nH]c4ccccc34)C(N)=O)CC2)cc1F
B13: Compound 30 (peptide)
peptide: {DOTA-Ahx}-[dW]NTF[azaGly]L[X2]W-NH2
SMILES: Cc1ccc(CNCC(=O)N2CCC(NC(=O)[C@H](CC(C)C)NC(=O)NNC(=O)[C@H](Cc3ccccc3)NC(=O)[C@@H](NC(=O)[C@H](CC(N)=O)NC(=O)[C@@H](Cc3c[nH]c4ccccc34)NC(=O)CCCCCNC(=O)CN3CCN(CC(=O)O)CCN(CC(=O)O)CCN(CC(=O)O)CC3)[C@@H](C)O)(C(=O)N[C@@H](Cc3c[nH]c4ccccc34)C(N)=O)CC2)cc1F

Molecular target: human kisspeptin receptor (KISS1R) (human), Q969F8
Assay: radioligand competition, hKISS1R membranes; legend: A is <10 nM

human kisspeptin receptor (KISS1R) (human), Q969F8, sequence (Q969F8 whole entry): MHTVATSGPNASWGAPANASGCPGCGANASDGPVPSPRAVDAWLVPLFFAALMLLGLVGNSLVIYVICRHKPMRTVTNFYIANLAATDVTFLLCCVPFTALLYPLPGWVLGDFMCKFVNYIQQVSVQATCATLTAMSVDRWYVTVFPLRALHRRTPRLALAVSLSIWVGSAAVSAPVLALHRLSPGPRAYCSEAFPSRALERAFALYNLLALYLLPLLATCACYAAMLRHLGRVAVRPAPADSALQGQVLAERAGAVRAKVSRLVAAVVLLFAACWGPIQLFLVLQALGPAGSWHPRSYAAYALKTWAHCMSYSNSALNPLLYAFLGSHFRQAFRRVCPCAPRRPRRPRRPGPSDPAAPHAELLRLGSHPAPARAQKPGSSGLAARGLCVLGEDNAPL

Ki, < 10 nM:
{DOTA-NH‑PEG2‑propanoyl}-[dY][d4Pal]NTF[azaGly]L[X2]W-NH2 [Compound 368], {DOTA-4‑(aminomethyl)cyclohexanecarboxylic acid}-F[azaGly]L[X2]W-NH2 [Compound 25], B1, X6-[dY][dK](DOTA)NT[Cha][azaGly]L[4‑amino‑1‑carbamimidoylpiperidine‑4‑carboxylic acid(Sarcosine)]W-NH2 [Compound 388], B2, B3, [N‑(3-fluoro-4-methylbenzyl)glycine][dY]K(DOTA)NTF[azaGly]L[4‑amino‑1‑carbamimidoylpiperidine‑4‑carboxylic acid(Sarcosine)][dW]-NH2 [Compound 360], B4, B5, B6, B7, X6-[dY]K(DOTA)NT[Cha][azaGly]L[4‑amino‑1‑carbamimidoylpiperidine‑4‑carboxylic acid(Sarcosine)]W-NH2 [Compound 387], {1‑(3-fluoro-4-methylphenyl)‑4‑oxo‑8,11‑dioxa‑2,5‑diazatetradecan‑14‑oyl}-[dY]K(DOTA)NTF[azaGly]L[4‑amino‑1‑carbamimidoylpiperidine‑4‑carboxylic acid(Sarcosine)][dW]-NH2 [Compound 359], B8, B9, B10, {DOTA-2‑(4-aminopiperidin-1-yl)acetic acid}-[dY]ENT[Phe(3-F)][azaGly]L[X2]W-NH2 [Compound 24], B11, {DOTA-NH‑PEG2‑propanoyl}-[dY][dW]NTF[azaGly]L[X2]W-NH2 [Compound 382], B12, [dY]K(DOTA)NTF[azaGly]L[4‑amino‑1‑carbamimidoylpiperidine‑4‑carboxylic acid(Sarcosine)]W-NH2 (not fully specified (N-terminus)) [Compound 384], {DOTA-APM}-F[azaGly]L[X2]W-NH2 (reading uncertain) [Compound 28], B13
